± gives the uncertainty stated by the source.

36 variants from the Human Domainome abundance scans (Beltran et al. 2025) can be followed below.

Sequences and labels used below:
B1: Gamma-crystallin C, residues 4 to 79; numbered along this chain, P07315 (parent)
chain: ITFYEDRAFQGRSYETTTDCPNLQPYFSRCNSIRVESGCWMLYERPNYQGQQYLLRRGEYPDYQQWMGLSDSIRSC

Variants of B1 are the subject of this series. The series can be described thus: abundance fitness (aPCA) (normalised: wild type 0, dead -1); higher = more abundant; growth selection in yeast, the domain comes from the species named. The following applies: Homo sapiens.
Turning to ITFYEDRAFQGSSYETTTDCPNLQPYFSRCNSIRVESGCWMLYERPNYQGQQYLLRRGEYPDYQQWMGLSDSIRSC, the abundance fitness was -0.033 ± 0.048.

As for ITFYEDRAFQRRSYETTTDCPNLQPYFSRCNSIRVESGCWMLYERPNYQGQQYLLRRGEYPDYQQWMGLSDSIRSC, the abundance fitness is -0.155 ± 0.047. On to ITFYEDRAFQGRSYETTTDCHNLQPYFSRCNSIRVESGCWMLYERPNYQGQQYLLRRGEYPDYQQWMGLSDSIRSC, for which the abundance fitness is -0.164 ± 0.18. The same measure for ITFYEDRVFQGRSYETTTDCPNLQPYFSRCNSIRVESGCWMLYERPNYQGQQYLLRRGEYPDYQQWMGLSDSIRSC: -0.064 ± 0.069; for ITFYEDRQFQGRSYETTTDCPNLQPYFSRCNSIRVESGCWMLYERPNYQGQQYLLRRGEYPDYQQWMGLSDSIRSC: 0.007 ± 0.11. With ITFYEDRAFQGRSYETTTDCPNLQPWFSRCNSIRVESGCWMLYERPNYQGQQYLLRRGEYPDYQQWMGLSDSIRSC, the abundance fitness was -0.092 ± 0.1. The same measure for ITFYEDRAFQGRSYETTTDCPNLQPYFSRCNSIRVESGCWMLYERPNYQGQQYLLRRGEYPDYQQQMGLSDSIRSC: 0.046 ± 0.17; for ITFYEDRAFQGRSYETTTDCPNLQPYFSRCNSIRVESPCWMLYERPNYQGQQYLLRRGEYPDYQQWMGLSDSIRSC: -0.108 ± 0.14. As to ITFYEDRAFQGRSYETTTDCPNLQPYFSRCNSIRVESKCWMLYERPNYQGQQYLLRRGEYPDYQQWMGLSDSIRSC, the abundance fitness was -0.177 ± 0.17. With ITFYEDRAFQGRSYETTTDCPNLQPYFSRCNSIRVESYCWMLYERPNYQGQQYLLRRGEYPDYQQWMGLSDSIRSC the figure was -0.109 ± 0.18; with ITFYEDRAFQGRSYETTTDCPNLQPYFSRCNSIRVESGCWMLYERPNYQGCQYLLRRGEYPDYQQWMGLSDSIRSC, -0.19 ± 0.33; with ITFYWDRAFQGRSYETTTDCPNLQPYFSRCNSIRVESGCWMLYERPNYQGQQYLLRRGEYPDYQQWMGLSDSIRSC, -0.209 ± 0.11. With ITFYEDRAFQGRSYETTTDCPNLQPYFSRCNQIRVESGCWMLYERPNYQGQQYLLRRGEYPDYQQWMGLSDSIRSC, the abundance fitness is -0.916 ± 0.4. For the variant ITFYEDRAFQGRSYETTTDCPNLQPYFSRCNSTRVESGCWMLYERPNYQGQQYLLRRGEYPDYQQWMGLSDSIRSC, the abundance fitness is -0.494 ± 0.15. In the case of ITFYEDRAFQGRSYETTTDCPNLQPYFSRCNSIRVESGRWMLYERPNYQGQQYLLRRGEYPDYQQWMGLSDSIRSC, the abundance fitness was -0.071 ± 0.07.

As for ITFYEGRAFQGRSYETTTDCPNLQPYFSRCNSIRVESGCWMLYERPNYQGQQYLLRRGEYPDYQQWMGLSDSIRSC, the abundance fitness was -0.009 ± 0.055. Consider ITFYEWRAFQGRSYETTTDCPNLQPYFSRCNSIRVESGCWMLYERPNYQGQQYLLRRGEYPDYQQWMGLSDSIRSC, for which the abundance fitness is -0.208 ± 0.072.

With ITFYEDRAFQGRSYETTTDCPNLQPYFSRGNSIRVESGCWMLYERPNYQGQQYLLRRGEYPDYQQWMGLSDSIRSC, the abundance fitness is -0.582 ± 0.098. In the case of ITFYEDRAFQGRSYETTTDCPNLQPYFSRTNSIRVESGCWMLYERPNYQGQQYLLRRGEYPDYQQWMGLSDSIRSC, the abundance fitness is -0.176 ± 0.12. The same measure for ITFYEDRAFQGRSYETTTDCPNLQPYFPRCNSIRVESGCWMLYERPNYQGQQYLLRRGEYPDYQQWMGLSDSIRSC: -0.115 ± 0.12. As for ITFYEDRAFQGRSYETTTDCPNLQPYFIRCNSIRVESGCWMLYERPNYQGQQYLLRRGEYPDYQQWMGLSDSIRSC, the abundance fitness is -0.017 ± 0.089. The same measure for ITFYEDRAFQGRSYETLTDCPNLQPYFSRCNSIRVESGCWMLYERPNYQGQQYLLRRGEYPDYQQWMGLSDSIRSC: -0.089 ± 0.084; for ITFYEDRAFQGRSYETTTDCPNLQPYFSRCNSIRVESGCWMLYERPNYQGQQYLLRRDEYPDYQQWMGLSDSIRSC: 0.251 ± 0.33. On to ITFYEDRAFQGRSYETTTDCPNLQPYFSRCNSIRVESGCWMLYERPNYQGQQYLLRRGEYPDYQQWMGLSDSWRSC, for which the abundance fitness amounted to 0.124 ± 0.12. With ITFYEDRAFQGRSYETTTQCPNLQPYFSRCNSIRVESGCWMLYERPNYQGQQYLLRRGEYPDYQQWMGLSDSIRSC the figure was -0.032 ± 0.12. Consider ITFYEDRAFQGRSYETTTDCPNLQPYFSRCNSIRVESGCWMLYERPNYQGQQYLLRRGEYHDYQQWMGLSDSIRSC, for which the abundance fitness is -0.205 ± 0.14. On to ITFYEDRAFQGRSYETTTDCPNLQPYFSRCNSIRVESGCWMLYERPNYQGQQYLLRRGEYGDYQQWMGLSDSIRSC, for which the abundance fitness was -0.041 ± 0.069. Turning to ITFYEDRAFQGRSYETTTDCPNLQPYFSRCNSIRVESGCWMLYERPNYQGQQYLTRRGEYPDYQQWMGLSDSIRSC, the abundance fitness is -0.318 ± 0.17. For the variant ITFYEDRAFQGRSYETTTDCPNLQPYFSRCNSIRVESGCWMLYERPNYQGQQYLKRRGEYPDYQQWMGLSDSIRSC, the abundance fitness is -0.853 ± 0.35.

For the variant ITFYEDRAFQGRSYETTTDCPNLQPYFSRCNSIRVESGCWMLYERPNYCGQQYLLRRGEYPDYQQWMGLSDSIRSC, the abundance fitness amounted to 0.33 ± 0.29.

As for ITFYEDRAFQGRSYETTTDCPNLQPYFSRCNSIRVESGCWMLYERPNYYGQQYLLRRGEYPDYQQWMGLSDSIRSC, the abundance fitness is -0.013 ± 0.3. The same measure for ITFYEDRAFQGRSYETTTDCPNLQPYSSRCNSIRVESGCWMLYERPNYQGQQYLLRRGEYPDYQQWMGLSDSIRSC: -0.109 ± 0.076; for ITFYEDRAFQGRSYETTTDCPNLQPYISRCNSIRVESGCWMLYERPNYQGQQYLLRRGEYPDYQQWMGLSDSIRSC: -0.144 ± 0.28.

Turning to ITTYEDRAFQGRSYETTTDCPNLQPYFSRCNSIRVESGCWMLYERPNYQGQQYLLRRGEYPDYQQWMGLSDSIRSC, the abundance fitness is -0.753 ± 0.27.

Take ITFYEDRAFQGRSYETTTDCPNLQPYFSRCNSIRWESGCWMLYERPNYQGQQYLLRRGEYPDYQQWMGLSDSIRSC: the abundance fitness is -1.08 ± 0.44. With ITFYEDRAFQGRSYETTTDCPNLQPYFSRCNSIRYESGCWMLYERPNYQGQQYLLRRGEYPDYQQWMGLSDSIRSC the figure was -0.827 ± 0.36.
